# Test results published in PMC6006217.
# Legend:
# [1] = target: BGB-A317/IgG4_(S228P) (human); assay: SPR; Biacore, human PD-1/His immobilised on a CM5 chip; the antibody captured on the PD-1/His surface; FcγRI injected over it
# [2] = target: FcγRI on HEK293/FcγRI cells (human) (UniProt P12314)
# BGB-A317/IgG4_(S228P) (human), sequence (heavy, as listed by the source, chain 1 of 2): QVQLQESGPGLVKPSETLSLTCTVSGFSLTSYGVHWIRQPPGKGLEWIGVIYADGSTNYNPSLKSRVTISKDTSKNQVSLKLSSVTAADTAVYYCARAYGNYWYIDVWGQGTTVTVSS
# BGB-A317/IgG4_(S228P) (human), sequence (light, as listed by the source, chain 2 of 2): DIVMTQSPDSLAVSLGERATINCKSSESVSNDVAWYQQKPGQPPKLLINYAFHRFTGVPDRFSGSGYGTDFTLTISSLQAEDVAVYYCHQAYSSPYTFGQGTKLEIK
Substance,Ka [1] [M⁻¹],Kd [1] [nM],koff [1] [s⁻¹],kon [1] [M⁻¹ s⁻¹],"IL-10 gene transcription (real-time PCR) in M2 macrophages seeded on PD-1-coated plates in the presence of the antibody, against huIgG baseline [2] [fold]"
human FcγRI (from UniProt P12314 16-292) (receptor),3.57e+08,2.8,0.00199,712000,
BGB-A317/IgG4_(S228P) (antibody),,,,,< 5
